In patent US20240376151A1, “STAPLED PEPTIDES AND METHODS THEREOF” (FOG PHARMACEUTICALS, INC., priority 2022, published 2024):
Bridge positions count the residues as written; N and C are the ends.

Target: T1, RNF31 PUB domain (Homo sapiens, UniProt Q96EP0)
T1 construct: MBP-TEV (N, cleaved yes); made in house; host or cells: E. coli BL21 (DE3) pLysS
T1 sequence (Q96EP0 1-179): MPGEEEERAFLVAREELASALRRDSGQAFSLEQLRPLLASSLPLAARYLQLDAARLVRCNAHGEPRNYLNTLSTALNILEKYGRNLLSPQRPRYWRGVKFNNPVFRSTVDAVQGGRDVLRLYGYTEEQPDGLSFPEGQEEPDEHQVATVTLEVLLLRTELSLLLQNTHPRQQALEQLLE
Assay: Phage Library Screening with NGS, RNF31 PUB domain
Format: binding
Details: for Phage library screen NGS readout, Target Concentration 10 / Phage library screen NGS readout, Target Concentration 30 / Phage library screen NGS readout, Target Concentration 100 / Phage library screen NGS readout, Target Concentration 300 / Phage library screen NGS readout, Target Concentration 1000: RNF31 PUB domain clusters C41-C45; for Phage library screen NGS readout, BLANK: clusters C41-C45

[1] = target concentration 1000, first column
[2] = target concentration 1000, second column

Row | Sequence | Phage library screen NGS readout, Target Concentration 10 | Phage library screen NGS readout, Target Concentration 30 | Phage library screen NGS readout, Target Concentration 100 | Phage library screen NGS readout, Target Concentration 300 | Phage library screen NGS readout, Target Concentration 1000 [1] | Phage library screen NGS readout, Target Concentration 1000 [2] | Phage library screen NGS readout, BLANK (column 1 of 5) | Phage library screen NGS readout, BLANK (column 2 of 5) | Phage library screen NGS readout, BLANK (column 3 of 5) | Phage library screen NGS readout, BLANK (column 4 of 5) | Phage library screen NGS readout, BLANK (column 5 of 5)
1 | DPAFWECMYAASDCDAS | 0 | 0 | 1 | 2 | 6 | 4 | 1 | 0 | 0 | 0 | 2
2 | DPAHANCQLAADVCSTY | 0 | 0 | 0 | 13 | 49 | 33 | 1 | 0 | 0 | 0 | 0
3 | DPAHDWCLYAAYDCRVY | 0 | 0 | 1 | 2 | 15 | 8 | 0 | 0 | 0 | 0 | 0
4 | DPAHTWCMYAAFDCFES | 1 | 0 | 0 | 1 | 9 | 4 | 1 | 2 | 2 | 0 | 0
5 | DPAIAQCMLAAQVCSTY | 2 | 0 | 0 | 5 | 54 | 34 | 1 | 0 | 0 | 0 | 0
6 | DPAIDACYDAAVMCTYV | 0 | 0 | 0 | 6 | 27 | 15 | 0 | 0 | 0 | 0 | 4
7 | DPAIQECLLAAATCWTY | 0 | 0 | 0 | 2 | 8 | 4 | 0 | 0 | 0 | 0 | 0
8 | DPAIQECYLAAQVCTTY | 0 | 0 | 0 | 4 | 14 | 13 | 0 | 0 | 0 | 0 | 0
9 | DPAIRECMLAALVCSTY | 0 | 1 | 3 | 10 | 42 | 49 | 0 | 0 | 0 | 1 | 0
10 | DPAIVQCAWAALYCDMQ (Ac-DPAIVQCAWAALYCDMQ-NH2; bridge 7-14; also: Cys-Cys staple, linker not named) | 0 | 0 | 0 | 7 | 22 | 20 | 0 | 0 | 0 | 0 | 0
11 | DPAIWECVSAAAVCMTY | 0 | 0 | 0 | 2 | 7 | 7 | 0 | 0 | 0 | 1 | 0
12 | DPAIYQCSLAADICSTY | 1 | 3 | 3 | 3 | 7 | 8 | 2 | 2 | 0 | 0 | 0
13 | DPALDYCLYAAYDCMYA | 0 | 0 | 0 | 3 | 5 | 12 | 0 | 3 | 0 | 0 | 0
14 | DPALEDCQWAALYCDEY | 0 | 0 | 1 | 2 | 7 | 9 | 1 | 1 | 1 | 0 | 0
15 | DPALEICWDAAIQCSYV | 2 | 3 | 4 | 47 | 186 | 171 | 2 | 0 | 0 | 3 | 1
16 | DPALRDCLDAAIMCTYT | 0 | 1 | 0 | 4 | 5 | 7 | 0 | 0 | 0 | 0 | 0
17 | DPALSHCTVAAMVCSTY | 1 | 1 | 1 | 11 | 96 | 69 | 0 | 0 | 2 | 0 | 0
18 | DPALVTCTWAAIYCDDF | 1 | 1 | 2 | 1 | 4 | 10 | 0 | 1 | 0 | 2 | 0
